Experimental data as given in patent US7041463B2, “Orthologues of human receptors and methods of use” (Pharmacopeia Drug Discovery, Inc., priority 2000, dated 2006).
pKd, pKi: −log10 of the molar value.

Columns and labels:
[1] = tested on: CXCR2 receptor; assay: CXCR2 radioligand binding, 293E membranes, monkey/primate receptors; details: recombinant CXCR2 from six primate species
Description: Membrane preparations for use in accordance with the methods of the present invention were generated as follows. 293E cell monolayers expressing CXCR2 receptors were washed twice with PBS and 5 ml of ice cold homogenizing buffer (for example, 10 mM HEPES pH 8.0, 10 mM EDTA). Cells were resuspended in membrane buffer and Dounce homogenized on ice 35 times. The membranes were collected by centrifugation at 15,000×g for 30 min. at 4° C. and resuspended in membrane storage buffer (10 mM Tris-HCl pH8.0, 1.2 mM MgSO4, 0.1 mM EDTA, 25 mM NaCl, 1 unit/ml bacitracin) at a final concentration of approximately 5×10^7 cell equivalents per ml. Aliquots were flash frozen and stored at −80° C. Frozen aliquots were subsequently thawed, diluted, and sonicated on ice using a Branson Sonifier® 250 (4×5 sec, 40% output).
Prior to use in a binding assay, a membrane preparation is “calibrated” as described below to determine the amount of membrane preparation to be used. A frozen sample of a membrane preparation is thawed and the preparation diluted in assay buffer to obtain several different concentrations of membranes, for example, 1:5, 1:10, 1:20, 1:40 and so on. The diluted membrane preparation is sonicated in a bath style sonicator for 5 minutes at room temperature. Each dilution is plated in a 96-well plate, for example, with quintuplicate samples for binding of ligand and wells to evaluate non-specific binding in triplicate. The dilutions that yield approximately 200 cpm total counts are chosen for subsequent assays.
For determining binding affinity for the orthologous CXCR2 receptors, described herein, the method of the present invention employs a binding assay such as the one described below. A suitable binding assay buffer for receptor binding consists of 10 mM Tris pH 8.0, 0.1 mM EDTA, 1.2 mM MgSO4, 25 mM NaCl and 0.03% CHAPS (Sigma, St. Louis, Mo.). […] 50 μl of scintillation fluid was added to each well and plates were counted in a Wallac Microbeta® TriLux for 1 min. per well.

[2] = target: canine/human chimeric bradykinin B1 receptor (UniProt Q9BDQ5); assay: radioligand competition binding
[3] = target: human bradykinin B1 receptor (human) (UniProt P46663); assay: radioligand competition binding
[4] = target: pig bradykinin B1 receptor (UniProt Q8HZN9); assay: radioligand competition binding
[5] = target: rabbit bradykinin B1 receptor (rabbit) (UniProt P48748); assay: radioligand competition binding
[6] = target: rhesus macaque bradykinin B1 receptor (UniProt Q8HZP2); assay: radioligand competition binding
[7] = target: tree shrew bradykinin B1 receptor (UniProt Q8HZP1); assay: radioligand competition binding
[8] = target: canine/human chimeric bradykinin B1 receptor (UniProt Q9BDQ5); assay: radioligand saturation binding; legend: [3H]-des-Arg10-kallidin
[9] = target: human bradykinin B1 receptor (human) (UniProt P46663); assay: as above
[10] = target: pig bradykinin B1 receptor (UniProt Q8HZN9); assay: as above
[11] = target: rabbit bradykinin B1 receptor (rabbit) (UniProt P48748); assay: as above
[12] = target: rhesus macaque bradykinin B1 receptor (UniProt Q8HZP2); assay: as above
[13] = target: tree shrew bradykinin B1 receptor (UniProt Q8HZP1); assay: as above
[14] = target: tree shrew B1 receptor; assay: [3H]-des-Arg10-kallidin binding, 293E membranes, tree shrew B1; parameters: species or system tree shrew (Tupaia minor); details: read-out: average dissociation constant (KD)
Description: (§1) Membrane preparations for use in accordance with the methods of the present invention were generated as follows. 293E cells expressing B1 receptors were harvested and pelleted. Cells were washed once with PBS and once with a membrane buffer (for example, 10 mM HEPES pH 7.5, 1 μM phosphoramidon, 3 μM amastatin, 1 μM captopril, 2 μM dithiothreitol (DTT)). Cells were resuspended in membrane buffer and Dounce homogenized on ice 35 times. The membranes were collected by centrifugation at 15,000×g for 30 min. at 4° C. and resuspended in membrane buffer containing 0.2% bovine serum albumin (BSA) at a final concentration of approximately 5×10^7 cell equivalents per ml. Aliquots were flash frozen and stored at −80° C. Frozen aliquots were subsequently thawed, diluted, and sonicated on ice using a Branson Sonifier® 250 (4×5 sec, 40% output).
(§2) Prior to use in a binding assay, a membrane preparation is “calibrated” as described below to determine the amount of membrane preparation to be used. […]
(§3) The method of the present invention employs a binding assay such as the one described below. […] 50 μl of scintillation fluid was added to each well and plates were counted in a Wallac Microbeta® TriLux for 10 min. per well.

[15] = target: B1 receptors (species homologues); assay: [3H]-des-Arg10-kallidin binding across all cloned B1 orthologues; details: 0.6 nM or 1.5 nM (rat) [3H]-dAKd
Description: as §1, §2, §3

[16] = target: T1, dog B1 (Canis lupus familiaris, UniProt Q9BDQ5, D322E/F324Y/R319K); assay: [3H]-des-Arg10-kallidin binding, 293E membranes, dog B1 (canine/human chimera); details: 0.6 nM [3H]-dAKd
T1 construct: the chimeric canine/human receptor described above was used in the experiments described below; C-terminal cytoplasmic tail of human bradykinin B1 receptor (fusion partner of the chimera); expressed in transfected cells; host or cells: 293-EBNA (293E) cells, membranes
T1 sequence (Q9BDQ5 with tags, fused parts or gaps R319K/D322E/F324Y): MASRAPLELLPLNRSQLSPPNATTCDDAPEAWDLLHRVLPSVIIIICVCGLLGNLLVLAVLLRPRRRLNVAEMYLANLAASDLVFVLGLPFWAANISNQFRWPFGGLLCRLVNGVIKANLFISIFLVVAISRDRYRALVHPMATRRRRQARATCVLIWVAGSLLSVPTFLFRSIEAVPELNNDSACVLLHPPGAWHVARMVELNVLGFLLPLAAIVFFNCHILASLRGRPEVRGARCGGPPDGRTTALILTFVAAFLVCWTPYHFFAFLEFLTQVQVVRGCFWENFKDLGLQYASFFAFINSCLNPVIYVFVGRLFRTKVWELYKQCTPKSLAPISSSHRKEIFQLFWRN
From the text: Additionally, a canine/human chimeric bradykinin B1 receptor comprising amino acids 1 to 320 of the canine sequence and amino acids 319–353 of human bradykinin B1 receptor was generated. Any number of chimeric molecules, for example, a chimera comprising amino acids 1–315 of the canine sequence and amino acids 314–353 of the human sequence can be used.
as §1, with “Frozen aliquots were subsequently thawed, diluted, and sonicated on ice using a Branson Sonifier® 250 (4×5 sec, 40% output).” left out
as §3

Sequence of rabbit bradykinin B1 receptor (rabbit) (P48748 whole entry): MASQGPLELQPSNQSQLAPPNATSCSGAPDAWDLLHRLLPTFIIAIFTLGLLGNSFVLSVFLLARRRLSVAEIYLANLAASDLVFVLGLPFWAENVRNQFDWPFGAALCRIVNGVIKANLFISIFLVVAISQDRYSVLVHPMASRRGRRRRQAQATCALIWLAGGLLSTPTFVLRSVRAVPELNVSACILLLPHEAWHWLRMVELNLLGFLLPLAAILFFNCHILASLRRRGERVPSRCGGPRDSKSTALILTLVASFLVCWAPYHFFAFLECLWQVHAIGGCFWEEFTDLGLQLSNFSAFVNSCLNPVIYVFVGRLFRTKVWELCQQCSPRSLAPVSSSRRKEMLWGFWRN
Sequence of pig bradykinin B1 receptor (Q8HZN9 whole entry): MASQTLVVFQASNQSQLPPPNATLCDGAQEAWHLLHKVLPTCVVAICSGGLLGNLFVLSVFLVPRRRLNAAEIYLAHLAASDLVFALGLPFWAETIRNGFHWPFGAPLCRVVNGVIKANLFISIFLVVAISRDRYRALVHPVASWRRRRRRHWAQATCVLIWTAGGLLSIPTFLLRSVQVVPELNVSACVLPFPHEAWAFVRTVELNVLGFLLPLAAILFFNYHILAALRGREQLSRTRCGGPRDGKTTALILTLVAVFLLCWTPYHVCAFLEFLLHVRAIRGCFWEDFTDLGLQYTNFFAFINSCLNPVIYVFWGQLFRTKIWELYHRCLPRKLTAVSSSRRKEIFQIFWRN
Sequence of des-Arg^10-kallidin (P01042 whole entry, looked up): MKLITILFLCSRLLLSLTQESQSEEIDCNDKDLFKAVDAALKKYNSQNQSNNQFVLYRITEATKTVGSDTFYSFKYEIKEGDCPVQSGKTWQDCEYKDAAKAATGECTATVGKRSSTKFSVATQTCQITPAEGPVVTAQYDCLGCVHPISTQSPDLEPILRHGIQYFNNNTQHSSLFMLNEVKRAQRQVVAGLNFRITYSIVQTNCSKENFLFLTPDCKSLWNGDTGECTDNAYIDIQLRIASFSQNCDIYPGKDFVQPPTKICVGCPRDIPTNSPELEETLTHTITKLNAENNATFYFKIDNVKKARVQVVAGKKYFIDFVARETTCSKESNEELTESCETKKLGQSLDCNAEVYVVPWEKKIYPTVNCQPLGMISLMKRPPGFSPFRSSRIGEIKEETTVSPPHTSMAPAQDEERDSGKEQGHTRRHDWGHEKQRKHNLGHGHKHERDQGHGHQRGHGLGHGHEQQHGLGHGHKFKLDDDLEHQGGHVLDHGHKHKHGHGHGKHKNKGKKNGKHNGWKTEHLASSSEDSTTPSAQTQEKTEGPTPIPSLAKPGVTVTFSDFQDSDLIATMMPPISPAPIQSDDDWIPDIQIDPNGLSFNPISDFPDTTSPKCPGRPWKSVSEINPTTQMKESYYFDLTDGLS
Sequence of [des-Arg^10] [Leu^9]kallidin (P01042 whole entry, looked up): as above
Sequence of tree shrew bradykinin B1 receptor (Q8HZP1 whole entry): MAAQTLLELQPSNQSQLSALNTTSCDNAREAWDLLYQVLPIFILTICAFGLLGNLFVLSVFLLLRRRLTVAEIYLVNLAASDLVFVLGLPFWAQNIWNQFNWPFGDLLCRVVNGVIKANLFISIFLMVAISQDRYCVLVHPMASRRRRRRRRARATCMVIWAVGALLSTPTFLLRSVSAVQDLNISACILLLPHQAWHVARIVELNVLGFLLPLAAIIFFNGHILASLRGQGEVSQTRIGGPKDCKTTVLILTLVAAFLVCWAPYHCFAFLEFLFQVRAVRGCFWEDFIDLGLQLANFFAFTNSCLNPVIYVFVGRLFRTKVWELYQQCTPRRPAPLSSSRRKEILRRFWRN

Question: Which “binding to the encoded receptors, in words” value (“binding” for short) [1] does the source give for “Gro-alpha: ligand bound by the encoded CXCR2 receptors” here?
Answer: Its value is “capable of binding”.

Question: “des-Arg^10-kallidin (from UniProt P01042 380-388)” was tested. Which pKi [2] did it give?
Answer: Its pKi is 8.38.

Question: And the pKi [3]?
Answer: Its pKi is 8.82.

Question: What about the pKi [4] of the same compound?
Answer: The pKi was 8.64.

Question: And the pKi [5]?
Answer: The pKi was 8.47.

Question: And the pKi [6]?
Answer: Its pKi is 8.48.

Question: What about the pKi [7] of the same compound?
Answer: Its pKi is 8.21.

Question: What about the Kd [8] of the same compound?
Answer: Its Kd is 3.3 ?.

Question: What about the Kd [9] of the same compound?
Answer: Its Kd is 0.6 ?.

Question: And the Kd [10]?
Answer: The Kd was 1.9 ?.

Question: And the Kd [11]?
Answer: The Kd was 1.3 ?.

Question: And the Kd [12]?
Answer: The Kd was 2.8 ?.

Question: What about the Kd [13] of the same compound?
Answer: Its Kd is 4.2 ?.

Question: For “ENA-78: ligand bound by the encoded CXCR2 receptors”, which “binding” value [1] is on record?
Answer: Its value is “capable of binding”.

Question: With interleukin 8: native ligand of CXCR2 as the compound, how does the “binding” value [1] read?
Answer: The value was “capable of binding”.

Question: How did the pKi [2] turn out when “[des-Arg^10] [Leu^9]kallidin (from UniProt P01042 380-388)” was run?
Answer: Its pKi is 6.92.

Question: And the pKi [3]?
Answer: Its pKi is 8.34.

Question: And the pKi [4]?
Answer: The pKi was 8.02.

Question: And the pKi [5]?
Answer: Its pKi is 8.03.

Question: What about the pKi [6] of the same compound?
Answer: Its pKi is 8.02.

Question: And the pKi [7]?
Answer: The pKi was 7.66.

Question: What does the source list for `N=C(N)NCCC[C@H](NC(=O)[C@@H](N)CCCCN)C(=O)N1CCC[C@H]1C(=O)N1CCC[C@H]1C(=O)NCC(=O)N[C@@H](Cc1ccccc1)C(=O)N[C@@H](CO)C(=O)N1CCC[C@H]1C(=O)N[C@@H](Cc1ccccc1)C(=O)O` [dAKd, des-Arg^10-Kallidin]?
Answer: pKd [14]: 8.38; affinity (K1) at all B1 species homologues, in words [15]: approximately equipotent; affinity (K1) at all B1 species homologues, in words ([15]; listed as dAKD): strong affinity

Question: Which “affinity (K1) at dog B1, in words” value [16] does the source give for [des-Arg^10] [Leu^9]kallidin [dALKd] here?
Answer: Its value is “more than an order of magnitude weaker”.
